Reference: patent US10131702B2, “Glucagon-GLP-1-GIP triple agonist compounds” (priority 2013, dated 2018)
Like-named read-outs stand apart in the source and are kept apart here.

Tests used:
Assay in all cases: cell-based or functional assay
[1] = molecular target: T1, human glucagon-like peptide 1 receptor (human, UniProt P43220 24-463)
human GIP receptor [2] = molecular target: T2, human GIP receptor (human, UniProt P48546 22-466)
T2 sequence: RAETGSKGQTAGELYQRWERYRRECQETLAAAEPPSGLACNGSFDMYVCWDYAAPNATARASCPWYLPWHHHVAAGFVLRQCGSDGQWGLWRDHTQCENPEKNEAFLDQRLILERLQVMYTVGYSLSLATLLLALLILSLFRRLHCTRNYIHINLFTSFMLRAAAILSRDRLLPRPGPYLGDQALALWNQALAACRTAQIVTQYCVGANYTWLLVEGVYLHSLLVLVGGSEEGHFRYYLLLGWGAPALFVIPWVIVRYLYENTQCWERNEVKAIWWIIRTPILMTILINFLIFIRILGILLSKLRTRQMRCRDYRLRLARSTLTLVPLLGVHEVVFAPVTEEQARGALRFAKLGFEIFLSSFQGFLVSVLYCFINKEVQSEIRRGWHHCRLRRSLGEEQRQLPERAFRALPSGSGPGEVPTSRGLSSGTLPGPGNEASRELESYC

human glucagon receptor [3] = molecular target: T3, human glucagon receptor (human, UniProt P47871 26-477)
T3 sequence (P47871 26-477): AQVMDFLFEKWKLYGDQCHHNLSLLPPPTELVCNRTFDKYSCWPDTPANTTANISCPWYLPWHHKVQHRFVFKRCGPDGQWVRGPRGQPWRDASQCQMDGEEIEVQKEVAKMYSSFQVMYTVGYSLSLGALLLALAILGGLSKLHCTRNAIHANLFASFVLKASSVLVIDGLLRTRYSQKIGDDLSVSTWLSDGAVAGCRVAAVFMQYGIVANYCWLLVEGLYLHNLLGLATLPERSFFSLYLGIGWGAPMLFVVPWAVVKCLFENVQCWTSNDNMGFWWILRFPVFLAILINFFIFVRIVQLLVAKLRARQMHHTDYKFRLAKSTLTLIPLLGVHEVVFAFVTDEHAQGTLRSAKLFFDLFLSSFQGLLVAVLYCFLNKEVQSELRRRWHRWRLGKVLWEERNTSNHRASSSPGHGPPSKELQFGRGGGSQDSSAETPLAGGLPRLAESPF

[4] = molecular target: T1, human glucagon-like peptide 1 receptor; remark: listed apart in the source
human GIP receptor [5] = molecular target: T2, human GIP receptor; remark: listed apart in the source
human glucagon receptor [6] = molecular target: T3, human glucagon receptor; remark: listed apart in the source

B1: Compound 17 (peptide)
peptide: YAQGTFTSDYSIYLDEKAAKDFVEWLLSA
HELM: PEPTIDE1{Y.[Aib].Q.G.T.F.T.S.D.Y.S.I.Y.L.D.E.K.A.A.K.D.F.V.E.W.L.L.S.A.[am]}$$$$V2.0
SMILES: CC[C@H](C)[C@H](NC(=O)[C@H](CO)NC(=O)[C@H](Cc1ccc(O)cc1)NC(=O)[C@H](CC(=O)O)NC(=O)[C@H](CO)NC(=O)[C@@H](NC(=O)[C@H](Cc1ccccc1)NC(=O)[C@@H](NC(=O)CNC(=O)[C@H](CCC(N)=O)NC(=O)C(C)(C)NC(=O)[C@@H](N)Cc1ccc(O)cc1)[C@@H](C)O)[C@@H](C)O)C(=O)N[C@@H](Cc1ccc(O)cc1)C(=O)N[C@@H](CC(C)C)C(=O)N[C@@H](CC(=O)O)C(=O)N[C@@H](CCC(=O)O)C(=O)N[C@@H](CCCCN)C(=O)N[C@@H](C)C(=O)N[C@@H](C)C(=O)N[C@@H](CCCCN)C(=O)N[C@@H](CC(=O)O)C(=O)N[C@@H](Cc1ccccc1)C(=O)N[C@H](C(=O)N[C@@H](CCC(=O)O)C(=O)N[C@@H](Cc1c[nH]c2ccccc12)C(=O)N[C@@H](CC(C)C)C(=O)N[C@@H](CC(C)C)C(=O)N[C@@H](CO)C(=O)N[C@@H](C)C(N)=O)C(C)C
EC50 (cAMP induction) [1]: 0.011 nM
EC50 (cAMP induction) (human GIP receptor [2]): 0.091 nM
EC50 (cAMP induction) (human glucagon receptor [3]): 0.16 nM
EC50 (cAMP induction) [4]: 0.16 nM
EC50 (cAMP induction) (human GIP receptor [5]): 0.013 nM
EC50 (cAMP induction) (human glucagon receptor [6]): 0.16 nM

B2: Compound 18 (peptide)
peptide: YAQGTFTSDYSIYLESKAAHDFVEWLLSA
HELM: PEPTIDE1{Y.[Aib].Q.G.T.F.T.S.D.Y.S.I.Y.L.E.S.K.A.A.H.D.F.V.E.W.L.L.S.A.[am]}$$$$V2.0
SMILES: CC[C@H](C)[C@H](NC(=O)[C@H](CO)NC(=O)[C@H](Cc1ccc(O)cc1)NC(=O)[C@H](CC(=O)O)NC(=O)[C@H](CO)NC(=O)[C@@H](NC(=O)[C@H](Cc1ccccc1)NC(=O)[C@@H](NC(=O)CNC(=O)[C@H](CCC(N)=O)NC(=O)C(C)(C)NC(=O)[C@@H](N)Cc1ccc(O)cc1)[C@@H](C)O)[C@@H](C)O)C(=O)N[C@@H](Cc1ccc(O)cc1)C(=O)N[C@@H](CC(C)C)C(=O)N[C@@H](CCC(=O)O)C(=O)N[C@@H](CO)C(=O)N[C@@H](CCCCN)C(=O)N[C@@H](C)C(=O)N[C@@H](C)C(=O)N[C@@H](Cc1c[nH]cn1)C(=O)N[C@@H](CC(=O)O)C(=O)N[C@@H](Cc1ccccc1)C(=O)N[C@H](C(=O)N[C@@H](CCC(=O)O)C(=O)N[C@@H](Cc1c[nH]c2ccccc12)C(=O)N[C@@H](CC(C)C)C(=O)N[C@@H](CC(C)C)C(=O)N[C@@H](CO)C(=O)N[C@@H](C)C(N)=O)C(C)C
EC50 (cAMP induction) [1]: 0.021 nM
EC50 (cAMP induction) (human GIP receptor [2]): 0.07 nM
EC50 (cAMP induction) (human glucagon receptor [3]): 0.15 nM
EC50 (cAMP induction) [4]: 0.15 nM
EC50 (cAMP induction) (human GIP receptor [5]): 0.021 nM
EC50 (cAMP induction) (human glucagon receptor [6]): 0.15 nM

B3: Compound 20 (peptide)
peptide: YAQGTFTSDYSIYLEKKAAKEFVEWLLSA
HELM: PEPTIDE1{Y.[Aib].Q.G.T.F.T.S.D.Y.S.I.Y.L.E.K.K.A.A.K.E.F.V.E.W.L.L.S.A.[am]}$$$$V2.0
SMILES: CC[C@H](C)[C@H](NC(=O)[C@H](CO)NC(=O)[C@H](Cc1ccc(O)cc1)NC(=O)[C@H](CC(=O)O)NC(=O)[C@H](CO)NC(=O)[C@@H](NC(=O)[C@H](Cc1ccccc1)NC(=O)[C@@H](NC(=O)CNC(=O)[C@H](CCC(N)=O)NC(=O)C(C)(C)NC(=O)[C@@H](N)Cc1ccc(O)cc1)[C@@H](C)O)[C@@H](C)O)C(=O)N[C@@H](Cc1ccc(O)cc1)C(=O)N[C@@H](CC(C)C)C(=O)N[C@@H](CCC(=O)O)C(=O)N[C@@H](CCCCN)C(=O)N[C@@H](CCCCN)C(=O)N[C@@H](C)C(=O)N[C@@H](C)C(=O)N[C@@H](CCCCN)C(=O)N[C@@H](CCC(=O)O)C(=O)N[C@@H](Cc1ccccc1)C(=O)N[C@H](C(=O)N[C@@H](CCC(=O)O)C(=O)N[C@@H](Cc1c[nH]c2ccccc12)C(=O)N[C@@H](CC(C)C)C(=O)N[C@@H](CC(C)C)C(=O)N[C@@H](CO)C(=O)N[C@@H](C)C(N)=O)C(C)C
EC50 (cAMP induction) [1]: 0.0094 nM
EC50 (cAMP induction) (human GIP receptor [2]): 0.047 nM
EC50 (cAMP induction) (human glucagon receptor [3]): 0.057 nM
EC50 (cAMP induction) [4]: 0.057 nM
EC50 (cAMP induction) (human GIP receptor [5]): 0.009 nM
EC50 (cAMP induction) (human glucagon receptor [6]): 0.057 nM

B4: Compound 19 (peptide)
peptide: YAQGTFTSDYSIYLDKKAAHDFVEWLLSA
HELM: PEPTIDE1{Y.[Aib].Q.G.T.F.T.S.D.Y.S.I.Y.L.D.K.K.A.A.H.D.F.V.E.W.L.L.S.A.[am]}$$$$V2.0
SMILES: CC[C@H](C)[C@H](NC(=O)[C@H](CO)NC(=O)[C@H](Cc1ccc(O)cc1)NC(=O)[C@H](CC(=O)O)NC(=O)[C@H](CO)NC(=O)[C@@H](NC(=O)[C@H](Cc1ccccc1)NC(=O)[C@@H](NC(=O)CNC(=O)[C@H](CCC(N)=O)NC(=O)C(C)(C)NC(=O)[C@@H](N)Cc1ccc(O)cc1)[C@@H](C)O)[C@@H](C)O)C(=O)N[C@@H](Cc1ccc(O)cc1)C(=O)N[C@@H](CC(C)C)C(=O)N[C@@H](CC(=O)O)C(=O)N[C@@H](CCCCN)C(=O)N[C@@H](CCCCN)C(=O)N[C@@H](C)C(=O)N[C@@H](C)C(=O)N[C@@H](Cc1c[nH]cn1)C(=O)N[C@@H](CC(=O)O)C(=O)N[C@@H](Cc1ccccc1)C(=O)N[C@H](C(=O)N[C@@H](CCC(=O)O)C(=O)N[C@@H](Cc1c[nH]c2ccccc12)C(=O)N[C@@H](CC(C)C)C(=O)N[C@@H](CC(C)C)C(=O)N[C@@H](CO)C(=O)N[C@@H](C)C(N)=O)C(C)C
EC50 (cAMP induction) [1]: 0.013 nM
EC50 (cAMP induction) (human GIP receptor [2]): 0.032 nM
EC50 (cAMP induction) (human glucagon receptor [3]): 0.024 nM
EC50 (cAMP induction) [4]: 0.024 nM
EC50 (cAMP induction) (human GIP receptor [5]): 0.013 nM
EC50 (cAMP induction) (human glucagon receptor [6]): 0.024 nM

B5: Compound 21 (peptide)
peptide: YAQGTFTSDYSKALDEKAAKEFVEWLLSA
HELM: PEPTIDE1{Y.[Aib].Q.G.T.F.T.S.D.Y.S.K.A.L.D.E.K.A.A.K.E.F.V.E.W.L.L.S.A.[am]}$$$$V2.0
SMILES: CC(C)C[C@H](NC(=O)[C@H](C)NC(=O)[C@H](CCCCN)NC(=O)[C@H](CO)NC(=O)[C@H](Cc1ccc(O)cc1)NC(=O)[C@H](CC(=O)O)NC(=O)[C@H](CO)NC(=O)[C@@H](NC(=O)[C@H](Cc1ccccc1)NC(=O)[C@@H](NC(=O)CNC(=O)[C@H](CCC(N)=O)NC(=O)C(C)(C)NC(=O)[C@@H](N)Cc1ccc(O)cc1)[C@@H](C)O)[C@@H](C)O)C(=O)N[C@@H](CC(=O)O)C(=O)N[C@@H](CCC(=O)O)C(=O)N[C@@H](CCCCN)C(=O)N[C@@H](C)C(=O)N[C@@H](C)C(=O)N[C@@H](CCCCN)C(=O)N[C@@H](CCC(=O)O)C(=O)N[C@@H](Cc1ccccc1)C(=O)N[C@H](C(=O)N[C@@H](CCC(=O)O)C(=O)N[C@@H](Cc1c[nH]c2ccccc12)C(=O)N[C@@H](CC(C)C)C(=O)N[C@@H](CC(C)C)C(=O)N[C@@H](CO)C(=O)N[C@@H](C)C(N)=O)C(C)C
EC50 (cAMP induction) [1]: 0.014 nM
EC50 (cAMP induction) (human GIP receptor [2]): 0.18 nM
EC50 (cAMP induction) (human glucagon receptor [3]): 0.1 nM
EC50 (cAMP induction) [4]: 0.1 nM
EC50 (cAMP induction) (human GIP receptor [5]): 0.015 nM
EC50 (cAMP induction) (human glucagon receptor [6]): 0.1 nM

B6: Compound 14 (peptide)
peptide: YAQGTFTSDYSIYLEKKAAHDFVEWLLSA
HELM: PEPTIDE1{Y.[Aib].Q.G.T.F.T.S.D.Y.S.I.Y.L.E.K.K.A.A.H.D.F.V.E.W.L.L.S.A.[am]}$$$$V2.0
SMILES: CC[C@H](C)[C@H](NC(=O)[C@H](CO)NC(=O)[C@H](Cc1ccc(O)cc1)NC(=O)[C@H](CC(=O)O)NC(=O)[C@H](CO)NC(=O)[C@@H](NC(=O)[C@H](Cc1ccccc1)NC(=O)[C@@H](NC(=O)CNC(=O)[C@H](CCC(N)=O)NC(=O)C(C)(C)NC(=O)[C@@H](N)Cc1ccc(O)cc1)[C@@H](C)O)[C@@H](C)O)C(=O)N[C@@H](Cc1ccc(O)cc1)C(=O)N[C@@H](CC(C)C)C(=O)N[C@@H](CCC(=O)O)C(=O)N[C@@H](CCCCN)C(=O)N[C@@H](CCCCN)C(=O)N[C@@H](C)C(=O)N[C@@H](C)C(=O)N[C@@H](Cc1c[nH]cn1)C(=O)N[C@@H](CC(=O)O)C(=O)N[C@@H](Cc1ccccc1)C(=O)N[C@H](C(=O)N[C@@H](CCC(=O)O)C(=O)N[C@@H](Cc1c[nH]c2ccccc12)C(=O)N[C@@H](CC(C)C)C(=O)N[C@@H](CC(C)C)C(=O)N[C@@H](CO)C(=O)N[C@@H](C)C(N)=O)C(C)C
EC50 (cAMP induction) [1]: 0.013 nM
EC50 (cAMP induction) (human GIP receptor [2]): 0.06 nM
EC50 (cAMP induction) (human glucagon receptor [3]): 0.1 nM
EC50 (cAMP induction) [4]: 0.1 nM
EC50 (cAMP induction) (human GIP receptor [5]): 0.013 nM
EC50 (cAMP induction) (human glucagon receptor [6]): 0.1 nM
